Measurements published in patent publication US20260207767A1 (ANAVEON, published 2026).
Each block holds one binder with its values, some of them ahead of it.

Experiments:
[1] = target: T1, IL-2R CD122-CD132 on Jurkat-PD1+CD122+ cells (UniProt P14784 27-551; P31785 23-369); assay: cell-based or functional assay
T1 sequence (looked up) 1: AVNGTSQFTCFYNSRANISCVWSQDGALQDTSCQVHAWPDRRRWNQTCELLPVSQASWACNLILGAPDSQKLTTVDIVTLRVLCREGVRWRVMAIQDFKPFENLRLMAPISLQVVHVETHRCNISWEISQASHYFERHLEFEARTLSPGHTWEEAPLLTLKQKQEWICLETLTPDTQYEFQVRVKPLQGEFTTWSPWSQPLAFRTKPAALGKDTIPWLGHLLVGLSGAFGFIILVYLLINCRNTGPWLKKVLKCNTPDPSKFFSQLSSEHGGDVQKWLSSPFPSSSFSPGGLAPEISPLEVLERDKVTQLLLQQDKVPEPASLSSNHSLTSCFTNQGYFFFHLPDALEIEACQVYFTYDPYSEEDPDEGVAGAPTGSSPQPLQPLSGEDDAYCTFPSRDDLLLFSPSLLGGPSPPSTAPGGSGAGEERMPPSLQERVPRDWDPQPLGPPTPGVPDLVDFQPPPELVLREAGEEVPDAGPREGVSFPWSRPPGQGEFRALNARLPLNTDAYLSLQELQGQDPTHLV
T1 sequence (looked up) 2: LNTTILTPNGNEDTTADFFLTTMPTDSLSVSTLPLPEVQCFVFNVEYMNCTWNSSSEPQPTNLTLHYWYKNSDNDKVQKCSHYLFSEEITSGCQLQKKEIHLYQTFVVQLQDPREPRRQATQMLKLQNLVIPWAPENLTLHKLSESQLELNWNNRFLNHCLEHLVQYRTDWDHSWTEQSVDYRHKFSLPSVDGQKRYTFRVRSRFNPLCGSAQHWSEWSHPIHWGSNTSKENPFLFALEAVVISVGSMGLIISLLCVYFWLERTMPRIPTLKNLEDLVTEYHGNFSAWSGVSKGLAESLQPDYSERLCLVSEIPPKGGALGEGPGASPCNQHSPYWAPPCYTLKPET

[2] = target: T2, recombinant hPD-1 (construct not stated) (human, UniProt Q15116 25-167, limits assumed); assay: BLI, supernatants
T2 construct: also called huPD-1; Human PD1
T2 sequence (Q15116 25-167 limits assumed): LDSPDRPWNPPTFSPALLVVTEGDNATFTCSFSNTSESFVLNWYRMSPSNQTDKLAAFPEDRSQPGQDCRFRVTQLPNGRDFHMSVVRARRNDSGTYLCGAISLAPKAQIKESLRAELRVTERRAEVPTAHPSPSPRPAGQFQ
Excerpt: In order to remove an N-glycosylation site present in the CDR-L1, mutations were inserted in the CDR-L1 of 21A08. The first asparagine ([…], N) in CDR-L1, was replaced by a serine (Ser, S), Glutamine (Gln, Q), or Alanine (Ala, A).

B1: JLI141 (bispecific antibody, human IgG1, lambda, L234A L235A)
heavy 1: EVQLLESGGGLVQPGGSLRLSCAASGFTFSINAMTWVRQAPGKGLEWVSTISGSGFSTYYADSLKGRFTISRDNSKNTLYLQMNSLRAEDTAVYYCAKEVYGDYWGQGTLVTVSSASTKGPSVFPLAPSSKSTSGGTAALGCLVKDYFPEPVTVSWNSGALTSGVHTFPAVLQSSGLYSLSSVVTVPSSSLGTQTYICNVNHKPSNTKVDKRVEPKSCDKTHTCPPCPAPEAAGGPSVFLFPPKPKDTLMISRTPEVTCVVVDVSHEDPEVKFNWYVDGVEVHNAKTKPREEQYNSTYRVVSVLTVLHQDWLNGKEYKCKVSNKALAAPIEKTISKAKGQPREPQVYTLPPSREEMTKNQVSLTCLVKGFYPSDIAVEWESNGQPENNYKTTPPVLDSDGSFFLTSKLTVDKSRWQQGNVFSCSVMHEALHNHYTQKSLSLSPGK
light: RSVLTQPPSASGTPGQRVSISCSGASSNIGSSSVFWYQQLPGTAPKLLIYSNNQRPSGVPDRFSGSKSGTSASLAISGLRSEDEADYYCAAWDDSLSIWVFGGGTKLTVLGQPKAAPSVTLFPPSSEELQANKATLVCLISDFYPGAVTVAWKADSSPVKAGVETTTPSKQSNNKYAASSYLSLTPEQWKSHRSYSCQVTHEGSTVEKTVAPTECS
heavy 2: AIRLTQSPSSFSASTGDRVTITCKASQSVDYGGGNFHLRPRDLISNINVIVLELKGSETTFMCEYADETATIVEFLNRWITFSQSIISTLTPTSSSTKKTQLQLEHLLLDLQMILNGINNYKNPKLTRMLTFKFYMPKKATELKHLQCLEEELKPLEEVLNLAQSKGGGGDSYMNWYQQKPGKAPKLLIYAASNLESGVPSRFSGSGSGTDFTLTISSLQSEDFATYYCQQSNEDPYTFGGGTKVEIKGGGGSGGGGSGGGGSEVQLVQSGAEVKKPGESLKISCKGSGYAFTNYLIEWVRQMPGKGLEWMGVINPGSGGTNYNEKFKGQVTISADKSISTAYLQWSSLKASDTAMYYCARWRGEGYYAYFDVWGQGTTVTVSSGGGGSGGGGSEVQLLESGGGLVQPGGSLRLSCAASGFTFSINAMTWVRQAPGKGLEWVSTISGSGFSTYYADSLKGRFTISRDNSKNTLYLQMNSLRAEDTAVYYCAKEVYGDYWGQGTLVTVSSASTKGPSVFPLAPSSKSTSGGTAALGCLVKDYFPEPVTVSWNSGALTSGVHTFPAVLQSSGLYSLSSVVTVPSSSLGTQTYICNVNHKPSNTKVDKRVEPKSCDKTHTCPPCPAPEAAGGPSVFLFPPKPKDTLMISRTPEVTCVVVDVSHEDPEVKFNWYVDGVEVHNAKTKPREEQYNSTYRVVSVLTVLHQDWLNGKEYKCKVSNKALAAPIEKTISKAKGQPREPQVYTLPPSREEMTKNQVSLYCLVKGFYPSDIAVEWESNGQPENNYKTTPPVLDSDGSFFLYSKLTVDKSRWQQGNVFSCSVMHEALHNHYTQKSLSLSPGK
EC50 value for pSTAT5 induction, Jurkat-PD-1+CD122+ cells [1]: 0.2 nM

B2: LTJ498 (bispecific antibody, human IgG1, lambda, L234A L235A)
heavy 1: B1 heavy 1
light: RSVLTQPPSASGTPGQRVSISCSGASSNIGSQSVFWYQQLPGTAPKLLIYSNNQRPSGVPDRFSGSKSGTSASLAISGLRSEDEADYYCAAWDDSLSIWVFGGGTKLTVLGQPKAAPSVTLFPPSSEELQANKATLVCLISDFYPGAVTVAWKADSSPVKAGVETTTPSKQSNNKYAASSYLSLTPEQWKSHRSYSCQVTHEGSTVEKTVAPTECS
heavy 2: B1 heavy 2
EC50 value for pSTAT5 induction, Jurkat-PD-1+CD122+ cells [1]: 0.24 nM

B3: 21A08Q (antibody, V domains shown)
VH: EVQLLESGGGLVQPGGSLRLSCAASGFTFSINAMTWVRQAPGKGLEWVSTISGSGFSTYYADSLKGRFTISRDNSKNTLYLQMNSLRAEDTAVYYCAKEVYGDYWGQGTLVTVSS
VL: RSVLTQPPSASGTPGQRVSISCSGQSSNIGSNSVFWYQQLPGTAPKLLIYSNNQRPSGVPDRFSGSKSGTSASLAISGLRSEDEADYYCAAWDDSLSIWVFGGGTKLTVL
notes: position not given
Kd [2]: 3.39 nM | koff [2]: 0.000267 s⁻¹

B4: RIB426 (bispecific antibody, human IgG1, kappa, L234A L235A)
heavy 1: QVQLVQSGAEVKKPGASVKVSCKASGYTFTNFYIHWVRQAPGQGLEWMGRIYPNYGITAYNQKFKDRVTMTVDTSTSTAYMELRSLRSDDTAVYYCARGYSYAMDYWGQGTTVTVSSASVAAPSVFIFPPSDEQLKSGTASVVCLLNNFYPREAKVQWKVDNALQSGNSQESVTEQDSKDSTYSLSSTLTLSKADYEKHKVYACEVTHQGLSSPVTKSFNRGECDKTHTCPPCPAPEAAGGPSVFLFPPKPKDTLMISRTPEVTCVVVDVSHEDPEVKFNWYVDGVEVHNAKTKPREEQYNSTYRVVSVLTVLHQDWLNGKEYKCKVSNKALAAPIEKTISKAKGQPREPQVYTLPPSREEMTKNQVSLTCLVKGFYPSDIAVEWESNGQPENNYKTTPPVLDSDGSFFLTSKLTVDKSRWQQGNVFSCSVMHEALHNHYTQKSLSLSPGK
light 1: DIQMTQSPSSVSASVGDRVTITCSASQGISGDLNWYQQKPGKAPKLLIYHTSQRHSDVPSRFSGSGSGTDFTLTISSLQPEDFATYYCQGYSKDLLTFGGGTKLEIKSSASTKGPSVFPLAPSSKSTSGGTAALGCLVKDYFPEPVTVSWNSGALTSGVHTFPAVLQSSGLYSLSSVVTVPSSSLGTQTYICNVNHKPSNTKVDKRVEPKSC
heavy 2: EVQLVQSGAEVKKPGESLKISCKGSGYAFTNYLIEWVRQMPGKGLEWMGVINPGSGGTNYNEKFKGQVTISADKSISTAYLQWSSLKASDTAMYYCARWRGEGYYAYFDVWGQGTTVTVSSASTKGPSVFPLAPSSKSTSGGTAALGCLVKDYFPEPVTVSWNSGALTSGVHTFPAVLQSSGLYSLSSVVTVPSSSLGTQTYICNVNHKPSNTKVDKRVEPKSCDKTHTCPPCPAPEAAGGPSVFLFPPKPKDTLMISRTPEVTCVVVDVSHEDPEVKFNWYVDGVEVHNAKTKPREEQYNSTYRVVSVLTVLHQDWLNGKEYKCKVSNKALAAPIEKTISKAKGQPREPQVYTLPPSREEMTKNQVSLYCLVKGFYPSDIAVEWESNGQPENNYKTTPPVLDSDGSFFLYSKLTVDKSRWQQGNVFSCSVMHEALHNHYTQKSLSLSPGK
light 2: not shown
EC50 value for pSTAT5 induction, Jurkat-PD-1+CD122+ cells [1]: 0.12 nM

B5: GQM289 (bispecific antibody, human IgG1, kappa, lambda, L234A L235A)
heavy 1: B1 heavy 1
light 1: not shown
heavy 2: B4 heavy 2
light 2: not shown
EC50 value for pSTAT5 induction, Jurkat-PD-1+CD122+ cells [1]: 0.22 nM

Other lines, results leading:

EC50 value for pSTAT5 induction, Jurkat-PD-1+CD122+ cells [1]: 43.9 nM
B6: YPW986 (bispecific antibody, human IgG1, kappa, L234A L235A)
heavy 1: EVQLLESGGGLVQPGGSLRLSCAASGFTFSINAMTWVRQAPGKGLEWVSTISGSGFSTYYADSLKGRFTISRDNSKNTLYLQMNSLRAEDTAVYYCAKEVYGDYWGQGTLVTVSSASVAAPSVFIFPPSDEQLKSGTASVVCLLNNFYPREAKVQWKVDNALQSGNSQESVTEQDSKDSTYSLSSTLTLSKADYEKHKVYACEVTHQGLSSPVTKSFNRGECDKTHTCPPCPAPEAAGGPSVFLFPPKPKDTLMISRTPEVTCVVVDVSHEDPEVKFNWYVDGVEVHNAKTKPREEQYNSTYRVVSVLTVLHQDWLNGKEYKCKVSNKALAAPIEKTISKAKGQPREPQVYTLPPSREEMTKNQVSLTCLVKGFYPSDIAVEWESNGQPENNYKTTPPVLDSDGSFFLTSKLTVDKSRWQQGNVFSCSVMHEALHNHYTQKSLSLSPGK
light 1: RSVLTQPPSASGTPGQRVSISCSGASSNIGSQSVFWYQQLPGTAPKLLIYSNNQRPSGVPDRFSGSKSGTSASLAISGLRSEDEADYYCAAWDDSLSIWVFGGGTKLTVLSSASTKGPSVFPLAPSSKSTSGGTAALGCLVKDYFPEPVTVSWNSGALTSGVHTFPAVLQSSGLYSLSSVVTVPSSSLGTQTYICNVNHKPSNTKVDKRVEPKSC
heavy 2: B4 heavy 2
light 2: not shown

EC50 value for pSTAT5 induction, Jurkat-PD-1+CD122+ cells [1]: 0.27 nM
B7: XWY176 (bispecific antibody, human IgG1, kappa, lambda, L234A L235A)
heavy 1: B1 heavy 1
light 1: not shown
heavy 2: B4 heavy 2
light 2: not shown
